Test results published in patent US20180298361A1 (CHO PHARMA, published 2018).

B1: Rtx-G1 (antibody, human IgG1, kappa)
heavy: not shown
light: QIVLSQSPAILSASPGEKVTMTCRASSSVSYIHWFQQKPGSSPKPWIYATNLASGVPVRFSGSGSGTSYSLTISRVEAEDAATYYCQQWTSNPPTFGGGTKLEIKRTVAAPSVFIFPPSDEQLKSGTASVVCLLNNFYPREAKVQWKVDNALQSGNSQESVTEQDSKDSTYSLSSTLTLSKADYEKHKVYACEVTHQGLSSPVTKSFNRGEC
modifications: homogeneous non-fucosylated N-glycan G1 (high mannose type, Man5GlcNAc2) at Asn-297
notes: also called glycoengineered Rituximab G1; Man5GlcNAc2 glycoform
B2: Rtx-G6 (antibody, human IgG1, kappa)
heavy: not shown
light: B1 light
modifications: homogeneous non-fucosylated N-glycan G6 (tri-antennary complex type with terminal alpha-2,6 sialic acids) at Asn-297
notes: also called glycoengineered Rituximab G6; tri-antennary complex type glycoform
B3: Rtx-G8 (antibody, human IgG1, kappa)
heavy: not shown
light: B1 light
modifications: homogeneous non-fucosylated N-glycan G8 (bi-antennary complex type with bisected GlcNAc and terminal di-galactose) at Asn-297
notes: also called glycoengineered Rituximab G8; bi-antennary complex type glycoform
B4: Rtx-G13 (antibody, human IgG1, kappa)
heavy: not shown
light: B1 light
modifications: homogeneous N-glycan G13 (bi-antennary complex type; structure only in FIG. 15) at Asn-297
notes: also called glycoengineered Rituximab G13; bi-antennary complex type glycoform
B5: Rtx-G14 (antibody, human IgG1, kappa)
heavy: not shown
light: B1 light
modifications: homogeneous N-glycan G14 (bi-antennary complex type; structure only in FIG. 15) at Asn-297
notes: also called glycoengineered Rituximab G14; bi-antennary complex type glycoform
B6: Rtx-G16 (antibody, human IgG1, kappa)
heavy: not shown
light: B1 light
modifications: homogeneous non-fucosylated N-glycan G16 (bi-antennary complex type with terminal alpha-2,6 sialic acids) at Asn-297
notes: also called glycoengineered Rituximab G16; bi-antennary complex type glycoform
B7: Rtx-G11 (antibody, human IgG1, kappa)
heavy: not shown
light: B1 light
modifications: homogeneous N-glycan G11 (bi-antennary complex type; structure only in FIG. 15) at Asn-297
notes: also called glycoengineered Rituximab G11; bi-antennary complex type glycoform
B8: Rtx-G4 (antibody, human IgG1, kappa)
heavy: not shown
light: B1 light
modifications: homogeneous non-fucosylated N-glycan G4 (hybrid type; structure in FIG. 15) at Asn-297
notes: also called glycoengineered Rituximab G4; hybrid type glycoform
B9: Rtx-G10 (antibody, human IgG1, kappa)
heavy: not shown
light: B1 light
modifications: homogeneous N-glycan G10 without core fucose (bi-antennary complex type with alpha 1,3 fucose on both GlcNAc and terminal di-galactose) at Asn-297
notes: also called glycoengineered Rituximab G10; bi-antennary complex type glycoform
B10: Rtx-G2 (antibody, human IgG1, kappa)
heavy: not shown
light: B1 light
modifications: homogeneous non-fucosylated N-glycan G2 (high mannose type, Man9GlcNAc2) at Asn-297
notes: also called glycoengineered Rituximab G2; Man9GlcNAc2 glycoform
B11: Rtx-G7 (antibody, human IgG1, kappa)
heavy: not shown
light: B1 light
modifications: homogeneous non-fucosylated N-glycan G7 (bi-antennary complex type with terminal di-galactose) at Asn-297
notes: also called glycoengineered Rituximab G7; bi-antennary complex type glycoform
B12: Rtx-G12 (antibody, human IgG1, kappa)
heavy: not shown
light: B1 light
modifications: homogeneous N-glycan G12 (bi-antennary complex type; structure only in FIG. 15) at Asn-297
notes: also called glycoengineered Rituximab G12; bi-antennary complex type glycoform
B13: Rtx-G5 (antibody, human IgG1, kappa)
heavy: not shown
light: B1 light
modifications: homogeneous non-fucosylated N-glycan G5 (tri-antennary complex type with terminal galactose residues) at Asn-297
notes: also called glycoengineered Rituximab G5; tri-antennary complex type glycoform
B14: Rtx-G3 (antibody, human IgG1, kappa)
heavy: not shown
light: B1 light
modifications: homogeneous non-fucosylated N-glycan G3 (hybrid type; structure in FIG. 15) at Asn-297
notes: also called glycoengineered Rituximab G3; hybrid type glycoform
B15: Rtx-G9 (antibody, human IgG1, kappa)
heavy: not shown
light: B1 light
modifications: homogeneous N-glycan G9 without core fucose (bi-antennary complex type with alpha 1,2 fucose on one of the two terminal galactose) at Asn-297
notes: also called glycoengineered Rituximab G9; bi-antennary complex type glycoform
B16: Rtx-G15 (antibody, human IgG1, kappa)
heavy: not shown
light: B1 light
modifications: homogeneous N-glycan G15 (bi-antennary complex type; structure only in FIG. 15) at Asn-297
notes: also called glycoengineered Rituximab G15; bi-antennary complex type glycoform
B17: Commercial Rituximab (antibody, human IgG1, kappa)
heavy: not shown
light: B1 light
modifications: heterogeneous Fc N-glycans at N297: core-fucosylated biantennary complex type oligosaccharides carrying 0-2 galactose (G0F, G1F, G2F)
notes: DrugBank DB00073; also called non-modified Rituximab; original Rituximab

What follows are binders tested against T1, recombinant soluble FcγRIIIA (UniProt P08637 17-208, limits assumed) (assay: ELISA; recombinant soluble FcγRIIIA coated on plate; against commercial Rituximab).
T1 construct: also called FcγIIIA; FcTRIIIA
Method: (§1) Microtiter plate (Corning® 96 Well Clear Flat Bottom Polystyrene High Bind, #9018) was coated with 50 ng/well of recombinant soluble FcγRIIIA diluted in 50 mM Bicarbonate/carbonate coating buffer (pH 10) overnight at 4° C. The plate was then washed 3 times with PBST (0.05% Tween 20 in PBS) and blocked with 5% BSA in PBST for 1 h at room temperature. The binding activity of glycoengineered antibodies (Rtx G1-G16) was determined for serial eight dilutions, starting with concentration of 100 μg/m1 in 2% BSA/PBST in duplicates. The plate was incubated for 1 h at room temperature, and washed 3 times with PBST. Next, 100 μl of goat anti-human IgG conjugated to horseradish peroxidase (Jackson immune, #109-035-088) in 2% BSA/PBST was added per well and incubated for 30 min at room temperature. The plate was washed 5 times with PBST then 100 μL per well of TMB substrate (eBioscience, #00-4201-56) was added and the resulting plate was incubated in the dark 15 min at room temperature. The absorbance value was determined at 450 nm in an ELISA reader (Molecular Devices Corporation, Sunnyvale, Calif., USA).

T1 sequence (P08637 17-208 limits assumed): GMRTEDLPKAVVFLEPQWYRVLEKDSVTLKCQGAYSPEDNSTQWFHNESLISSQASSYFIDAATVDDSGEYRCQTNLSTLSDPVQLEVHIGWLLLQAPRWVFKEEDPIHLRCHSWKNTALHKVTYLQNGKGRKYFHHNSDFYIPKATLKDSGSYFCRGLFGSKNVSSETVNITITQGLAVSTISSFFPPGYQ

First: B1
Second: B2
The “EC50 improvement Folds” value of the first is lower: 6.5 fold for the first, 34 fold for the second.

Going from B3 to B4, the “EC50 improvement Folds” value falls from 32 fold to 22 fold.

First: B5
Second: B6
The “EC50 improvement Folds” value of the first is lower: 33 fold for the first, 34 fold for the second.

Going from B7 to B8, the “EC50 improvement Folds” value falls from 5.4 fold to 2.7 fold.

Compared with B9, B10 is lower in “EC50 improvement Folds” value: 26 fold for the first, roughly 1 fold for the second.

Going from B11 to B12, the “EC50 improvement Folds” value falls from 35 fold to 33 fold.

Going from B13 to B14, the “EC50 improvement Folds” value falls from 35 fold to 3.2 fold.

Compared with B15, B16 is higher in “EC50 improvement Folds” value: 17 fold for the first, 32 fold for the second.

Each binder was assayed against T1, recombinant soluble FcγRIIIA (assay: ELISA; recombinant soluble FcγRIIIA coated on plate; the reference itself).
Method: as §1

With B17 the “EC50 improvement Folds” value was 1 fold.

The binders below were run against T1, recombinant soluble FcγRIIIA (assay: ELISA; recombinant soluble FcγRIIIA coated on plate, antibody titrated, anti-human IgG-HRP detection).
Method: as §1

Compared with B17, B1 is 6.5-fold lower in EC50: 1.04 µg/mL for the first, 0.16 µg/mL for the second.

B2 and B3 are within 1.5-fold of each other in EC50: 0.032 µg/mL for the first, 0.034 µg/mL for the second.

B4 and B5 are within 1.5-fold of each other in EC50: 0.048 µg/mL for the first, 0.033 µg/mL for the second.

First: B6
Second: B7
The EC50 of the first is 6.2-fold lower: 0.032 µg/mL for the first, 0.199 µg/mL for the second.

Compared with B8, B9 is 9.2-fold lower in EC50: 0.394 µg/mL for the first, 0.043 µg/mL for the second.

Compared with B10, B11 is 34-fold lower in EC50: 1.05 µg/mL for the first, 0.031 µg/mL for the second.

B12 and B13 are within 1.5-fold of each other in EC50: 0.033 µg/mL for the first, 0.031 µg/mL for the second.

Going from B14 to B15, the EC50 falls from 0.32 µg/mL to 0.061 µg/mL (5.2-fold).

B16 was tested, and the EC50 was 0.034 µg/mL.

Compared with B17, B1 is higher in “Maxi binding (A450 nm)” value: 1.2 A450 nm for the first, 1.4 A450 nm for the second.

First: B2
Second: B3
The “Maxi binding (A450 nm)” value of the first is higher: 2.8 A450 nm for the first, 2.3 A450 nm for the second.

Compared with B4, B5 is lower in “Maxi binding (A450 nm)” value: 2.6 A450 nm for the first, 2.4 A450 nm for the second.

Going from B6 to B7, the “Maxi binding (A450 nm)” value falls from 2.5 A450 nm to 2.4 A450 nm.

First: B8
Second: B9
The “Maxi binding (A450 nm)” value of the first is lower: 1.2 A450 nm for the first, 2.2 A450 nm for the second.

Going from B10 to B11, the “Maxi binding (A450 nm)” value rises from 1.1 A450 nm to 2.5 A450 nm.

B12 and B13 are the same in “Maxi binding (A450 nm)” value: 2.6 A450 nm for the first, 2.6 A450 nm for the second.

Compared with B14, B15 is higher in “Maxi binding (A450 nm)” value: 1.3 A450 nm for the first, 2.4 A450 nm for the second.

For B16, the “Maxi binding (A450 nm)” value was 2.3 A450 nm.
